Data as given in the supplement of paper PMC10567573.

B1: LRRC45 (parent)
chain: FQTRQEMTSMSAELKMRAIQAEER
B2: ZNF511 (parent)
chain: AAPFRFVARPVRFPREHQFFEDGD

Variants of: B1
Experiment: protein stability index of a GFP-peptide fusion (GPS, HEK-293T) (PSI 1-6); higher = more stable
Conditions: c terminus: a fixed tail appended
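Further: lentivirally expressed fusions sorted by FACS into six bins by GFP to DsRed ratio, PSI derived from sequencing read proportions per bin multiplied by bin number.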

Protein stability index, by site and new letter:
F1: V 4.92; E 4.91; H 4.85; Q 5.21; S 5.1; G 4.46; T 5.21; C 4.85; L 5.21; M 4.52; R 4.42; Y 4.02; A 4.88; W 4.66; D 5.24; I 4.27; K 5.1; P 4.5; N 5.13
Q2: I 2.93; F 4.36; A 3.67; D 4.48; E 5.13; G 4.85; H 2.27; C 3.29

Variants of: B2
Experiment: as above
Conditions: c terminus: a fixed tail appended

Protein stability index of substitutions, site by site:
D24: N 2.88; L 2.04; I 1.53; V 2.73; T 1.72; H 1.66; F 1.83; C 2.29; R 2.04; W 2.32; E 3.01; A 2.23; P 2.1; Y 1.83; M 1.49; G 2.08; Q 2.06; K 2.97; S 2.01
E21: T 1.64; F 1.65; V 2.07; I 1.97; G 3.51; P 2.45; K 2.19; N 2.29; Q 2; W 1.69; R 1.92; M 1.76; S 2.24; A 1.96; L 1.92; Y 1.92; H 2.5; C 1.91; D 2
H17: R 2.29; V 1.94; N 2.71; S 2.2; T 2.35; Y 2.11; P 1.92; W 1.72; Q 2.45
G23: T 2.5; E 2.25; D 2.77; H 2.18; V 1.9; R 2.24; I 1.51; N 2.36; Q 2.45; Y 2.35; L 2.56; F 1.61; M 1.91; S 2.49; K 2.53; P 2.69; W 2.02; A 2.29; C 1.67
F19: A 2.52; E 2.61; R 2.4; S 2.25; H 2.39; T 2.81; Y 2.57; D 2.48; P 2.63; V 2.11; I 1.87; L 2.61; N 2.52; Q 2.46; M 3.14; C 2.08; W 2.04; K 2.08; G 2.8
D22: A 1.94; S 2.29; W 2.02; G 2.34; I 1.64; Q 2; M 1.72; H 2.54; Y 2.16; L 2.01; V 2.65; E 1.98; K 1.52; P 2.44; C 2.08; N 2.25; T 2.29
Q18: E 1.96; D 1.8; L 2.18; Y 1.74; I 2.26; S 2.46; H 1.7; F 1.69; G 1.87; K 2.46; P 2.05; N 2.33; T 1.69; R 2.27; W 2.44; V 1.9; A 2.77; M 2.86; C 1.64
F20: E 2.52; C 2.95; V 2.85; Q 2.42; M 2.49; L 2.96; Y 2.6; W 1.9; H 1.91; D 2.54; I 2.27; S 2.96; P 2.75; N 2.56; R 2.32; T 2.5; G 2.59; K 2.46; A 2.2
